Tests used:
[1] = target: T1, Aβ1-28 monomer (UniProt P05067 672-699); assay: SPR, antibody immobilised
T1 construct: range 1-28 (Aβ numbering)
Protocol: Affinity and specificity evaluation and KD determination by surface plasmon resonance: Binding interactions between antigens and antibodies were evaluated by SPR using a Biacore 8K instrument (Cytiva) according to standard procedures. […] Additionally, the specificity towards different N-truncated forms of Aβ (Aβ2-28, Aβ3-28, Aβ4-28 and AβpE11-28 monomers) was evaluated.
(§1) Single cycle kinetics with the antibodies immobilized on a CM5 chip was used to measure the binding of the antibodies to the different monomers (AβpE3-40, AβpE11-28, Aβ1-28, Aβ2-28, Aβ3-28 and Aβ4-28). For the measurements, 5 μg/ml of analyte antibody was immobilized on the chip. […] Regeneration of the surface between cycles was done by injecting 30 μl 3 M MgCl₂. The binding data was fitted to a 1:1 interaction model.
(§2) In all SPR experiments, 1×HBS-EP+ (Cytiva, cat. no. BR100669) was used as running buffer and to dilute antibodies and target antigens. Experiments were performed at 25° C.

[2] = target: T2, Aβ2-28 monomer (UniProt P05067 673-699); assay: SPR, antibody immobilised
T2 construct: range 2-28 (Aβ numbering)
Protocol: as §1, §2

[3] = target: T3, Aβ3-28 monomer (UniProt P05067 674-699); assay: SPR, antibody immobilised
T3 construct: range 3-28 (Aβ numbering)
Protocol: as §1, §2

[4] = target: T4, AβpE11-28 monomer (UniProt P05067 682-699, pyroglutamate at position 11 (N-terminal residue)); assay: SPR, antibody immobilised
T4 construct: range 11-28 (Aβ numbering)
T4 peptide (looked up): EVHHQKLVFFAEDVGSNK
Protocol: as §1, §2

[5] = target: T5, AβpE3-40 monomer (UniProt P05067 674-711, pyroglutamate at position 3 (N-terminal residue)); assay: SPR, antibody immobilised, monomer injected, 1:1 fit
T5 construct: range 3-40 (Aβ numbering); Synthetic peptide (Bachem/Anaspec), verified monomeric by SEC; also called monomeric AβpE3-40
Protocol: as §1, §2

[6] = target: T6, Aβ4-28 monomer (UniProt P05067 675-699); assay: as above
T6 construct: range 4-28 (Aβ numbering)
Protocol: as §1, §2

[7] = target: T5, AβpE3-40 monomer; assay: inhibition ELISA, antigen titrated in solution, AβpE3-40 coat
Protocol: (§3) For binding to Aβ1-40 and AβpE11-40, the positive control 4G8 (Covance #SIG-39320, epitope: amino acids 17-24 of Aβ) was included. The recombinant antibodies were incubated at a fixed concentration (0.05 μg/ml) with titrating concentrations of the different Aβ antigens. After incubation for 45 min at 900 rpm to reach equilibrium, the antibody-Aβ samples were added to a blocked and washed ELISA plate with an AβpE3-40 coat (0.5 μM). The samples were incubated on the plate for 25 min without shaking followed by washing, incubation with detection antibody, another washing step and finally incubation with alkaline phosphatase substrate.

[8] = target: T7, Aβ1-40 monomer (UniProt P05067 672-711); assay: as above
T7 construct: range 1-40 (Aβ numbering)
Protocol: as §3

[9] = target: T8, AβpE11-40 monomer (UniProt P05067 682-711, pyroglutamate at position 11 (N-terminal residue)); assay: as above
T8 construct: range 11-40 (Aβ numbering)
T8 peptide (looked up): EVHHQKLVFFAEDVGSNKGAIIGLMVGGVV
Protocol: as §3

[10] = target: T9, AβpE3-42 protofibrils (UniProt P05067 674-713, pyroglutamate at position 3 (N-terminal residue)); assay: as above
T9 construct: range 3-42 (Aβ numbering); Soluble aggregates made from AβpE3-42 peptide, purified in the void peak of SEC; also called AβpE3-42 PF
Protocol: as §3

[11] = target: T9, AβpE3-42 protofibrils; assay: SPR, protofibrils immobilised, antibody injected, 1:1 fit, apparent
Protocol: (§4) Single cycle kinetics was also used to measure binding of the antibodies to AβpE3-42 protofibrils. […] For binding to AβpE3-42 protofibrils, the antibodies were injected over the chip using a 3-fold dilution series in five steps starting at 700 nM, using 2 min injection of every antibody concentration and a 60 min dissociation time. Regeneration of the surface between cycles was done by injecting 30 μl 10 mM glycine-HCl pH 1.7. The binding data was fitted to a 1:1 interaction model.
as §2

[12] = target: T10, Aβ1-42 monomer (UniProt P05067 672-713); assay: ELISA: Aβ monomer captured on a polyclonal anti-Aβ42 coat, hybridoma supernatant diluted 1/243, anti-mouse IgG-HRP
T10 construct: range 1-42 (Aβ numbering)

[13] = target: T11, Aβ2-42 monomer (UniProt P05067 673-713); assay: as above
T11 construct: range 2-42 (Aβ numbering)

[14] = target: T9, AβpE3-42 protofibrils; assay: SPR, protofibrils immobilised, antibody injected, 1:1 fit, apparent; binding to AβpE3-42 protofibrils (not monomer); KD in pM
Protocol: as §4, §2

[15] = target: T12, His10-hTfR1 (SEQ ID NO:109) (human, UniProt P02786 90-760); assay: ELISA, hybridoma supernatant
T12 construct: Recombinant, HEK293; also called His-tagged hTfR1; His-tagged hTfR

[16] = target: T13, ectodomain of human TfR1 (His10-hTfR1; SEQ ID NO:110) (human, UniProt P02786 89-760); assay: indirect ELISA: plate coated with 1 µg/ml hTfR1 ectodomain, mouse IgG titrated, anti-mouse IgG-HRP; x axis printed as 'TfR (ng/ml)'
T13 construct: also called ectodomain of hTfR1
Protocol: (§5) In the ELISA experiment, human, mouse or three different chimeric TfR1 receptors were used to coat ELISA plates (FIGS. 30A-30E). The ELISA protocol was slightly modified as follows from the indirect ELISA described in Example 15. […] The coated plates were then blocked. Dilution series of mouse IgG of the analyzed antibodies were prepared in PBS and incubated on the ELISA plates. Unbound antibodies were then washed off before incubating wells with a HRP-conjugated secondary, anti-mouse-IgG for 1 h. Plates were then washed again before addition of HRP substrate TMB for development and detection of antibody binding to the wells. TMB development was stopped by adding 0.5 M H₂SO₄ to the wells and ELISA responses measured as the OD at 450 nm in an ELISA plate reader.

[17] = target: T14, hTfR1 (recombinant, construct not specified) (human, UniProt P02786 89-760, limits assumed); assay: BLI: IgG captured from hybridoma supernatant on anti-mouse capture sensors, 250 nM hTfR1 in solution, 120 s association, 90 s dissociation
T14 construct: also called biotinylated hTfR1
Protocol: Next, sensors with immobilized IgGs were briefly washed for 10 s before incubation in running buffer to establish a baseline signal. […] All proteins were diluted in running buffer. Target dissociation was measured by incubating the biosensors in running buffer for 90 s.

[18] = target: T15, h/m apical domain chimera (SEQ ID NO:112) (human/mouse chimera); assay: indirect ELISA: plate coated with 1 µg/ml h/m apical domain chimera, mouse IgG titrated, anti-mouse IgG-HRP; x axis printed as 'TfR (ng/ml)'
T15 construct: also called chimeric TfR1 consisting of human apical domain grafted on mouse TfR1 ectodomain
T15 chain: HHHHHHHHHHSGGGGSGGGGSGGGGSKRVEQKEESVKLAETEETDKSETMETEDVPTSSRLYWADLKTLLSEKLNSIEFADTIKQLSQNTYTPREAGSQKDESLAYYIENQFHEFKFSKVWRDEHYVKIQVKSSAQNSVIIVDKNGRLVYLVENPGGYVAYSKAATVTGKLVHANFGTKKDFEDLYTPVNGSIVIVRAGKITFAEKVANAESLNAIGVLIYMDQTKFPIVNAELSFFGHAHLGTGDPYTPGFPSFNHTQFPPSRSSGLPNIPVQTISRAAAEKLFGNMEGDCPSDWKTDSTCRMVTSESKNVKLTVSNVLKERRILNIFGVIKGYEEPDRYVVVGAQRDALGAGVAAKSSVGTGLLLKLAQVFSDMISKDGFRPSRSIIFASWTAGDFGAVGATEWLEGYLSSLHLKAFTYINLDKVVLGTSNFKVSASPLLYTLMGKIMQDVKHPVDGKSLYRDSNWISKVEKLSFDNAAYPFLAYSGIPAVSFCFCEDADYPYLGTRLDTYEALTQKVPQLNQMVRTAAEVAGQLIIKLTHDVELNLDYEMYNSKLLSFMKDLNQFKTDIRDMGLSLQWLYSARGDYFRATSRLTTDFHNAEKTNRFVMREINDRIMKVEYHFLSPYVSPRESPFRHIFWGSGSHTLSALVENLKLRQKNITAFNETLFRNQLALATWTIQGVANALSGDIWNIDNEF
Protocol: Plasma samples serially diluted from a starting dilution of 1/450 or hybridoma supernatants diluted 1/2 were added to the plates (50 μl/well; dilution buffer: PBS with 0.1% BSA and 0.05% TWEEN®-20) and incubated for 2 h at room temperature and then the plates were washed four times. […] After another wash (as above), 50 μl/well TMB substrate (K-Blue® Aqueous, Neogen) was added, and the reaction was stopped after 10-15 min with 50 μl/well of 0.5 M H₂SO₄. The optical density at 450 nm was read using a plate reader (Tecan). The endpoint titers were defined as the dilution above the average of the blank wells (background) plus 3 standard deviations of the blank wells.
as §5

[19] = target: T16, h/m helical domain chimera (SEQ ID NO:113) (human/mouse chimera, UniProt Q62351 90-763 (mouse entry)); assay: indirect ELISA: plate coated with 1 µg/ml h/m helical domain chimera, mouse IgG titrated, anti-mouse IgG-HRP; x axis printed as 'TfR (ng/ml)'
T16 construct: also called chimeric TfR1 consisting of human helical domain grafted on mouse TfR1 ectodomain
T16 chain: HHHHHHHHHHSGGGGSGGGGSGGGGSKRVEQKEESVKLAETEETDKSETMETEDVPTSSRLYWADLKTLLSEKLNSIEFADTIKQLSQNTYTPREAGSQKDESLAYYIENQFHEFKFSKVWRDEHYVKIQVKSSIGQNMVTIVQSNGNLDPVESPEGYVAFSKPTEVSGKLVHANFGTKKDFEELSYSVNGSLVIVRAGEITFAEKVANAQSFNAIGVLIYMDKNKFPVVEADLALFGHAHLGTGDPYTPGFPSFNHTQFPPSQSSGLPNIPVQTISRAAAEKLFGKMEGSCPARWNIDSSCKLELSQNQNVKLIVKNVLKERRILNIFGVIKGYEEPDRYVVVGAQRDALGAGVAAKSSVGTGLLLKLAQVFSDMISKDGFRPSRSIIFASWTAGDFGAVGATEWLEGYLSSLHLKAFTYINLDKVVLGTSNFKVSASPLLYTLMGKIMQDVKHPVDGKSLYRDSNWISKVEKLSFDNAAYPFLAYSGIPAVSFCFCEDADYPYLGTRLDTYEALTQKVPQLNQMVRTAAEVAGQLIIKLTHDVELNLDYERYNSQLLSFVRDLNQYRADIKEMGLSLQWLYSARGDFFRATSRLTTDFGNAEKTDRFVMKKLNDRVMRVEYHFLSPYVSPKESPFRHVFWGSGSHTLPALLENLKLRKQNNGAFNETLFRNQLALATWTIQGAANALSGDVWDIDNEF
Protocol: as §5

T6 sequence (P05067 675-699): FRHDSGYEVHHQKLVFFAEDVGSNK
T9 sequence (P05067 674-713): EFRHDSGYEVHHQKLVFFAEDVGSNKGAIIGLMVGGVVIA
T10 sequence (P05067 672-713): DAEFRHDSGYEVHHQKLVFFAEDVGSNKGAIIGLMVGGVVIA
T1 sequence (P05067 672-699): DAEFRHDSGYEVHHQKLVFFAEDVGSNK
T2 sequence (P05067 673-699): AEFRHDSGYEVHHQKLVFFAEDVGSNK
T3 sequence (P05067 674-699): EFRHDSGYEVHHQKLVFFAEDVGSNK
T11 sequence (P05067 673-713): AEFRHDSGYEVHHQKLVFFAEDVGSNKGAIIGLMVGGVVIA

B1: Pyr7.1 (antibody, V domains shown)
VH: KVQLQQSGPELVKPGTSIKMSCKTSGYSFTGYTLNWVKQSPGKNPEWIGLINPYNGITTYNPKFMGKATLTVDKSSSTAYMELLSLTSEDSAVYYCSREGNWEGVYWGQGTLVTVSA
VL: not shown
notes: Murine anti-AβpE3 antibody; also called recombinant antibody Pyr7.1; hybridoma clone Pyr7.1
B1: no binding (tested: 2500 nM) [1]; no binding (tested: 2500 nM) [2]; no binding (tested: 2500 nM) [3]. For the same binder, the binding result [4] was “no binding (tested: 2500 nM)”, the Kd [5] was 2.3 nM and the koff [5] was 0.000122 s⁻¹. For the same binder, the kon [5] was 53200 M⁻¹ s⁻¹, the Kd [6] was 8310 nM and the koff [6] was 0.454 s⁻¹. The kon [6] was 102000 M⁻¹ s⁻¹, the IC50 [7] was 2.85 nM and the IC50 [8] was > 5000 nM. For the same binder, the IC50 [9] was > 5000 nM, the IC50 [10] was 12.8 nM and the koff [11] was 2.29e-06 s⁻¹. The kon [11] was 78200 M⁻¹ s⁻¹, the binding result [12] was “no binding” and the binding result [13] was “no binding”. It also gave a Kd [14] of 0.031 nM.

B2: 37D10 (antibody, V domains shown)
VH: QVQLQQSGAELVRPGTSVKISCKASGYAFTNYWLGWVKQRPGHGLEWIGDIFPGSDNTYYNEKFKGKATLTADKSSSTAYMQLSSLASEDSAVYFCARSGNFYAMDYWGQGTSVTVSS
VL: ENVLTQSPAIMSASPGEKVTMTCSASSSVNYMNWYQQKSSTFPKLWIYDTSKLASGVPGRFSGSGSGKFYSLTISSMEAEDVATYYCFQGSGYPFTFGSGTKLEIK
notes: also called mouse antibody 37D10; clone 37D10
B2: binds [15]; binds [16]; binds [17]. B2: no binding (tested: about 600 ng/ml) [18]; no binding (tested: about 600 ng/ml) [19].

Reference: patent US20250388664A1 (BIOARCTIC, published 2025)
